Among the data in patent publication US20230374114A1 (published 2023) are Kd and EC50 values, retold here.

For assay [1], the target named is biotinylated RBD (BLI sensors) (UniProt P0DTC2 319-537). The experiment in a line: BLI.
The target of assay [2] is SARS2 spike on transduced 293T cells (UniProt P0DTC2 14-1273). The experiment in a line: FACS.

Where only a bound is given, the exact number is not on record here.

B1: Ab_18 (scFv, V domains shown)
VH: EVQLVQSGGGVVQPGRSLRVSCAASGFSFSRYGMHWVRQAPGKGLEWVAFIRHDGSKKYYADSVEGRFTISRDNSRNTVSLEMNSLRGEDTAVYYCAKDGRLEAALDDWGQGTLVTVSS
VL: NFMLTQPHSMSGSAGKTVTVSCIRSSGSIANNFVQWYQQRPGSAPTTVIYEDNQRPSGVPDRFSGSIDSSSNSASLTISGLKTEDEADYYCQSYDSSNLVFGGGTRLTVL
B1: the Kd in assay [1] was found to be 2.31 nM.

B2: Ab 23 scFv-Fc (scFv, V domains shown)
VH: EVQLVQSGAEVKKPGSSVKVSCRSSGGTFSTYGITWVRQAPGQGLEWMGRIIPSLGIPNYAQKFQGRVTITADTSVSTAWMELSSLESDDTAIYYCARENIDLATNDFWGQGTLVTVSS
VL: QSALTQPPSASGSPGQSVTISCTGTSRDIGAYGYVSWYQQVPGKAPKLIIYEVRNRPSGVSSRFSGSKSGNTASLTISGLQAEDEADYYCSSYTSSSTLDVVFGGGTKLTVL
In the case of B2, the Kd in assay [1] was below 0.001 nM.

B3: Ab 21 (scFv, V domains shown)
VH: QVQLVQSGGGLVQPGGSLRLSCATSGFTFDDYAMHWVRQAPGKGLEWVSGISWNSGSIGYVDSVKGRFTISRDNRNNKVYLQMNNLRAEDTAVYYCARDWWGSIDHWGLGTLVTVSS
VL: QSALTQPRSVSGSPGQSVTISCTGTSSDVGGYDYVSWYQQHPGKAPKLIIYDVSKRPSGVPDRFSGSKSGNTASLTVSGLQAEDEADYYCSSYTSSSPVVFGGGTKLTVL
Take B3: the Kd in assay [1] worked out at 1.48 nM.

B4: Ab 15 scFv-Fc (scFv, V domains shown)
VH: QVQLVQSGGGLVKPGRSLRLSCTASGFTFGDYAMSWFRQAPGKGLEWVGFIRSKAYGGTTGYAASVKGRFTISRDDSKSIAYLQMNSLKTEDTAVYYCTTADDDMDVWGKGTTVTVSS
VL: NFMLTQPHSVSESPGKTVTISCTRSSGTIASNYVQWYQQRPGSAPTTVIYEDNQRPSGVPDRFSGSIDRSSNSASLTISGLTPDDEADYYCQSYDTSNHYVFGTGTKVTVL
The molecule B4 returned a Kd in assay [1] of 6.61 nM.

B5: Ab_13 (scFv, V domains shown)
VH: QVTLKESGPKLVKPTQTLTLTCTFSGFSLSTSGVGVGWIRQPPGKALEWLALIYWDDDKRYSPSLKSRLTIAKDTSKYQVVLTMTNMDPVDTATYYCARISGSGYFYPFDIWGQGTMVTVSA
VL: NFMLTQPHSVSESPGKTVTISCTRSSGSIASNYVQWYQQRPGSAPTTVIYEDNQRPSGVPDRFSGSIDSSSNSASLTISGLKTEDEADYYCQSYDSSNLWVFGGGTKLTVL
For the molecule B5, binding in assay [1] was characterised by a dissociation constant (Kd) of 0.922 nM.

B6: Ab 25 scFv-Fc (scFv, V domains shown)
VH: QVQLVQSGGGLVQPGGSLRLSCAASGFTFSSYWMSWVRQAPGKGLEWVANIKQDGSEKYYVDSVKGRFTISRDNAKNSLYLQMNSLRAEDTAVYYCARGFYYYGAFDIWGQGTTVTVSS
VL: NFMLTQPHSVSESPGKTVTISCTGSSGSIASNYVQWYQQRPGSAPTTVIYEDNQRPSGVPDRFSGSIGSSSNSASLTISGLKTEDEADYYCQSYDSSNHWVFGGGTKLTVL
In assay [1], B6 came in with a dissociation constant (Kd) of 0.223 nM.

B7: Ab 20 (scFv, V domains shown)
VH: QVQLVQSGGGSVKPGGSLRLSCAASGYRLSDYYMHWVRQAPGKGLEWVANIKQDGSEKYYVDSVKGRFTISRDNAKNSLYLQMNSLRAEDTAVYYCARVRGWSRGYFDYWGQGTLVTVSS
VL: NFMLTQPHSVSESPGKTVTISCTGSSGSIASNYVQWYQQRPGSAPTTVIYEDNQRPSGVPDRFSGSIDSSSNSASLLISGLKTEDEADYYCQSYDSSNHWVFGGGTKLTVL
In assay [1], B7 returned a Kd of 1.9 nM.

B8: Ab 28 scFv-Fc (scFv, V domains shown)
VH: QVTLKESGPGLVNPSETLSLTCTVSGASISNSFWSWIRQSPGKGLEWIGYTSYSGNSIYNPSLKSRLTMSIDTSKNQLSLNLRSLTAADTAVYYCARREWIKGHFDYWGQGTLVTVSS
VL: NFMLTQPHSVSESPGKTVTISCTGSGGSIASNYVQWYQQRPGSAPTTVIYEDNQRPSGVPDRFSGSIDSSSNSASLTISGLKTEDEADYYCQSYDSSNPVVFGGGTKLTVL
B8 came in with a dissociation constant Kd in assay [1] of 0.166 nM.

B9: Ab 26 scFv-Fc (scFv, V domains shown)
VH: QVQLVQSGGGLVQPGRSLRLSCAASGFTFDDYAMHWVRQVPGKGLEWVSGIDWNSGVIGYADSVKGRFTISRDNAKNSLYLQMNSLRAEDTALYYCAKDAYSYGFLGAFDIWGQGTMVTVSS
VL: LPVLTQPPSVSVAPGQTASITCGGDNIRTKGVHWYQQKPGQAPLLVIYYASDRPSGIPERFSGSSSGNTATLTISRVEAGDEADYYCQVWDSSSDLVVFGGGTTLTVL
Consider B9, for which the dissociation constant (Kd) in assay [1] came to 0.704 nM.

B10: Ab 12 Fab (Fab, V domains shown)
VH: EVQLVESGPGVVSPSATLFLTCSVSGGSIRTHSWNWIRQPPGKPLEWIGFIHHSGATNKNPSLKSRVTISSDTSKNEFSLTLTSVTAADTAVYYCARGPGILSYWSRGTLVTVSS
VL: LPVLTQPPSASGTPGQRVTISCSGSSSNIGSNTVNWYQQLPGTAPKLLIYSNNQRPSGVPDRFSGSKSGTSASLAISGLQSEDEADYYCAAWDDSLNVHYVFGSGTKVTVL
In turn, B10 returned a 50% effective concentration (EC50) in assay [2] of 0.582 nM.

B11: Ab 12 scFv-Fc (S1-R3-T1-H7) (scFv, V domains shown)
VH: EVQLVESGPGVVSPSATLFLTCSVSGGSIRTHSWNWIRQPPGKPLEWIGFIHHSGATNKNPSLKSRVTISSDTSKNEFSLTLTSVTAADTAVYYCARGPGILSYWSRGTLVTVSS
VL: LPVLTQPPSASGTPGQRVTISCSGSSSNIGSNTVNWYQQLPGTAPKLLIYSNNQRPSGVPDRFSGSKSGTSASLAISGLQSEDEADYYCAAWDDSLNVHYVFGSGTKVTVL
Molecule B11 showed an EC50 in assay [2] of 0.0237 nM.

B12: Ab 12 IgG (antibody, V domains shown)
VH: EVQLVESGPGVVSPSATLFLTCSVSGGSIRTHSWNWIRQPPGKPLEWIGFIHHSGATNKNPSLKSRVTISSDTSKNEFSLTLTSVTAADTAVYYCARGPGILSYWSRGTLVTVSS
VL: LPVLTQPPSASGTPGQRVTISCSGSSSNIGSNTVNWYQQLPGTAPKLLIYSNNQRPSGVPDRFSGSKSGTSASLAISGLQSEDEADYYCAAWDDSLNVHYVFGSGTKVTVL
In assay [2], B12 had an EC50 of 0.00588 nM.

B13: Ab 19 scFv-Fc (scFv, V domains shown)
VH: EVQLVESGAEVKKPGESLKISCKGSGYSFTSYWIGWVRQMPGKGLEWMGIIYPGDSDTRYSPSFQGQVTISADKSISTAYLQWSSLKASDTAMYYCARRGDLDAFDIWGQGTMVTVSS
VL: QPGLTQPPAASGTPGQRVTVSCSGASANIGSNAVSWFKQFPETAPRLLISGNTHRPSGVPDRVSGSKSGTSASLTISGLQSDDEADYYCAAWDDSLNGYVFGSGTKVTVL
In assay [1], B13 had an equilibrium dissociation constant (Kd) of 0.533 nM.

B14: Ab_17 (scFv, V domains shown)
VH: QVQLVQSGGGVVQPGRSLRLSCAASGFTFDDYAMHWVRQVPGKGLEWVSGIDWNSGVIGYADSVKGRFTISRDNVKNSLYLQMNSLRTEDSALYYCAKDIGPGGSGSYYAFDIWGQGTTVTVSS
VL: QSALTQPASVSGSPGQSITISCTGTSSDVGGSKYVSWYQQHPGKAPKVMIYDVTKRPSGVPDRFSGSKSGNTASLTISGLQAEDEADYYCAAWDDSLNGVVFGGGTKLTVL
As for B14, the dissociation constant (Kd) in assay [1] came to 0.882 nM.

B15: Ab 27 scFv-Fc (scFv, V domains shown)
VH: QVQLVQSGTEVKKPGASVKVSCKASGYSFTGSHLHWVRQAPGQGLEWMGWINPDSGVINYAQKFQGRVTLTRDTSISTAYMELSGLRSDDTAVYYCARDKAIGYVWALDYWGQGTLVTVSS
VL: QSALTQPPSVSGSPGQSVTISCTGTSSDVGTYNRVSWYQQPPGKAPKLMIYEVSNRPSGVSNRFSGSKSGNTASLTISGLQAEDEADYYCSSYTRTFTYVFGTGTKVTVL
In assay [1], B15 returned a dissociation constant Kd of 0.906 nM.

B16: Ab_16 (scFv, V domains shown)
VH: QVQLVQSGGGVVQPGRSLRLSCAASGFTFSNYGMHWVRQAPGKGLEWVALIWERGSKKDYADSVKGRFTVSRDNSKNTLYLQMNSLRPEDTAVYFCAREGISMTGAEYFQHWGQGTLVTVSS
VL: QSVLTQPPSVSGSPGQRVTMSCTGSSSNIGAGYDVHWYQQVPGAAPRLLIYGTNNRPSGVPDRFSGSKSGTSASLTITGLQAEDEADYYCQSYDNSLTDPYVFGTGTKVTVL
In turn, B16 returned a Kd in assay [1] of 0.959 nM.

B17: Ab 14 scFv-Fc (scFv, V domains shown)
VH: QVQLQQSGPGLVKPSQTLSLTCAISGDSVSSNSAAWNWIRQSPARGLEWLGRTYYRSRWYNDYAISMKSRITINPDTSKNQFSLQLESVTPEDTAVYYCAREIRGFDYWGQGTLVTVSS
VL: QSVLTQPPSASGSPGQSVTISCTGTSSDVGAYNFVSWYQHHPGKAPKLIIYDFNKRPSGVPDRFSGSKSGNTASLTVSGLQADDEADYYCSSYAGSNNFDVVFGGGTKLTVL
On to B17, for which, in assay [1], binding was characterised by a dissociation constant (Kd) of 0.911 nM.
